Source: PMC4513130, “Neuronal Calcium Sensor-1 Binds the D2 Dopamine Receptor and G-protein-coupled Receptor Kinase 1 (GRK1) Peptides Using Different Modes of Interactions*” (The Journal of Biological Chemistry, 2015)

Columns and labels:
[1] = target: T1, Rattus norvegicus neuronal calcium sensor-1 (NCS-1), full-length, Ca2+-bound (Rattus norvegicus, UniProt P62168 1-190); assay: crystal structure; NCS-1 (1 mM) with 2-fold excess of GRK1 peptide; 0.12 M alcohols, 0.1 M HEPES/MOPS pH 7.5, 30% PEGMME 550 and PEG 20000, 20 °C; 2.30 Å; details: both partners purified
T1 construct: Neuronal calcium sensor-1, Rattus norvegicus, Swiss-Prot P62168, full length (residues 1-190); also called Ca2+/NCS-1; rat NCS-1

[2] = target: T1, Rattus norvegicus neuronal calcium …; assay: ITC; 1 mM Ca2+/NCS-1 in the syringe titrated into 100 uM D2R peptide in the cell, 25 °C, 50 mM Tris-HCl, 50 mM NaCl, 5 mM CaCl2, pH 7.5; fitted to a sequential model and to a two-site nonsequential model with stoichiometry fixed at 1:2 NCS-1:peptide; details: both partners purified

| binding result [1] | Kd [2] [µM] | Binder |
| --- | --- | --- |
| binds | – | MDFGSLETVVANSAFIAARGSFDGS (also called RK25; source: synthetic peptide, bought: GenicBio, China (>95% pure)) [GRK1 peptide (N terminus of G-protein-coupled receptor kinase 1, residues 1-25)] |
| – | 40 ± 6 | NIEFRKAFLKILHSR (terminal Arg added to improve solubility; also called D2B (copy in the N-lobe site); D2C (copy in the C-lobe site); source: synthetic peptide, bought: GenicBio, China (>95% pure)) [D2 receptor peptide (D2R peptide)] |
